Positions count from the first letter of the chain named.
B1: unnamed (protein)
chain 1: EVQLVQSGAEVKKPGESLRISCKGSGYSFSTYWISWVRQMPGKGLEWMGKIYPGDSYTNYSPSFQGQVTISADKSISTAYLQWSSLKASDTAMYYCTRGSGLFDYWGQGTLVTVSS
chain 2: SYELTQPPSVSVSPGQTASITCSGDNIGDQYAHWYQQKPGQSPVLVIYQDKNRPSGIPERFSGSNSGNTATLTISGTQAMDEADYYCATYTGFGSLAVFGGGTKLTVL
B2: unnamed (protein)
chain 1: B1 chain 1 with T97A, S100V
chain 2: B1 chain 2
B3: unnamed (protein)
chain 1: B1 chain 1 with T97A, S100I, L102V
chain 2: B1 chain 2
B4: unnamed (protein)
chain 1: B1 chain 1 with T97S, S100Y, L102V
chain 2: B1 chain 2
B5: unnamed (protein)
chain 1: B1 chain 1 with T97A, S100W, L102V
chain 2: B1 chain 2
B6: unnamed (protein)
chain 1: B1 chain 1 with T97A, S100I
chain 2: B1 chain 2
B7: unnamed (protein)
chain 1: B1 chain 1 with S100T, L102I
chain 2: B1 chain 2
B8: unnamed (protein)
chain 1: B1 chain 1 with T97A, S100T
chain 2: B1 chain 2
B9: unnamed (protein)
chain 1: B1 chain 1 with S100V
chain 2: B1 chain 2
B10: unnamed (protein)
chain 1: B1 chain 1 with S28T, T31S, S100Y, L102I
chain 2: B1 chain 2
B11: unnamed (protein)
chain 1: B1 chain 1 with S28T, T31S, T97A, S100Y
chain 2: B1 chain 2
B12: unnamed (protein)
chain 1: B1 chain 1 with T97S, S100Y, L102I
chain 2: B1 chain 2
B13: unnamed (protein)
chain 1: B1 chain 1 with T97A, S100W, L102I
chain 2: B1 chain 2
B14: unnamed (protein)
chain 1: B1 chain 1 with T97A, S100V, L102I
chain 2: B1 chain 2
B15: unnamed (protein)
chain 1: B1 chain 1 with T97A, S100I, L102I
chain 2: B1 chain 2
B16: unnamed (protein)
chain 1: B1 chain 1 with S100Y, L102V
chain 2: B1 chain 2
B17: unnamed (protein)
chain 1: B1 chain 1 with S100T
chain 2: B1 chain 2
B18: unnamed (protein)
chain 1: B1 chain 1 with S100V, L102I
chain 2: B1 chain 2
B19: unnamed (protein)
chain 1: B1 chain 1 with T97A, S100H, L102V
chain 2: B1 chain 2
B20: unnamed (protein)
chain 1: B1 chain 1 with T97A, S100W
chain 2: B1 chain 2

molecular target: TNFRSF9, Q07011; assay: Kd (SPR)

| Binder | Kd [nM] |
| --- | --- |
| B1 | 225 |
| B2 | 153 |
| B3 | 33.4 |
| B4 | 130 |
| B5 | 122 |
| B6 | 175 |
| B7 | 92 |
| B8 | 95.6 |
| B9 | 141 |
| B10 | 95.4 |
| B11 | 86.1 |
| B12 | 39.7 |
| B13 | 45 |
| B14 | 158 |
| B15 | 128 |
| B16 | 96.2 |
| B17 | 142 |
| B18 | 92.3 |
| B19 | 315 |
| B20 | 60.3 |

— the FLAb antibody collection (doi:10.1101/2023.12.08.570889)
